To fix the notation:
B1: target 3 insU 3' of 22,insC 3' of 19 (mixed)
RNA 1: CACCCGUGCAAAAUUGCAGGGGUCUAAAACGACCUGAAUAUUUCAGAUCAAA
RNA 2: GGGAAUGGAUCCACAUCUACGAAUUCGUUUUUUGCAUCUGAAAUAUUCAGGUCUGCAGAUCGGAAGAGCACACGU
B2: target 3 C6A,A18G (mixed)
RNA 1: B1 RNA 1
RNA 2: GGGAAUGGAUCCACAUCUACGAAUUCGUUUUUGGUCUGAAAUAUUAAGGUCUGCAGAUCGGAAGAGCACACGU
B3: target 3 insC 3' of 22 (mixed)
RNA 1: B1 RNA 1
RNA 2: GGGAAUGGAUCCACAUCUACGAAUUCGUUUCUUGAUCUGAAAUAUUCAGGUCUGCAGAUCGGAAGAGCACACGU
B4: target 3 insG 3' of 7,insA 3' of 4 (mixed)
RNA 1: B1 RNA 1
RNA 2: GGGAAUGGAUCCACAUCUACGAAUUCGUUUUUGAUCUGAAAUAUUGCAGAGUCUGCAGAUCGGAAGAGCACACGU
B5: target 3 U7A,U8C (mixed)
RNA 1: B1 RNA 1
RNA 2: B2 RNA 2 with G34A, U44C, U45A, A46C
B6: target 3 insU 3' of 13,insU 3' of 5 (mixed)
RNA 1: B1 RNA 1
RNA 2: B4 RNA 2 with A40U, U42A, A43U, U44A, G46U, G49U, A50G
B7: target 3 G3U,C6G (mixed)
RNA 1: B1 RNA 1
RNA 2: B2 RNA 2 with G34A, A46G, G49U
B8: target 3 insC 3' of 3,insC 3' of 3 (mixed)
RNA 1: B1 RNA 1
RNA 2: B4 RNA 2 with G46C, C47A, A48G, A50C, G51C
B9: target 3 insA 3' of 10,insC 3' of 5 (mixed)
RNA 1: B1 RNA 1
RNA 2: B4 RNA 2 with U44A, G46U, G49C, A50G
B10: target 3 insC 3' of 11,insC 3' of 5 (mixed)
RNA 1: B1 RNA 1
RNA 2: B4 RNA 2 with U42C, A43U, U44A, G46U, G49C, A50G
B11: target 3 insC 3' of 2,insG 3' of 1 (mixed)
RNA 1: B1 RNA 1
RNA 2: B4 RNA 2 with G46C, C47A, A48G, A50U, G51C, U52C, C53G
B12: target 3 insU 3' of 4 (mixed)
RNA 1: B1 RNA 1
RNA 2: GGGAAUGGAUCCACAUCUACGAAUUCGUUUUUGAUCUGAAAUAUUCAGUGUCUGCAGAUCGGAAGAGCACACGU
B13: target 3 insA 3' of 8,insU 3' of 6 (mixed)
RNA 1: B1 RNA 1
RNA 2: B4 RNA 2 with U45A, G46U, A48U, G49A, A50G
B14: target 3 insA 3' of 6 (mixed)
RNA 1: B1 RNA 1
RNA 2: B12 RNA 2 with G48A, U49G
B15: target 3 C6G,A9G (mixed)
RNA 1: B1 RNA 1
RNA 2: B2 RNA 2 with G34A, A43G, A46G
B16: target 3 A5G,U7A (mixed)
RNA 1: B1 RNA 1
RNA 2: B2 RNA 2 with G34A, U45A, A46C, A47G
B17: target 3 insA 3' of 8,insG 3' of 2 (mixed)
RNA 1: B1 RNA 1
RNA 2: B4 RNA 2 with U45A, G46U, A50G, G51U, U52G
B18: target 3 U20C,U22A (mixed)
RNA 1: B1 RNA 1
RNA 2: B2 RNA 2 with U30A, U32C, G34A, A46C
B19: target 3 G3C,U8G (mixed)
RNA 1: B1 RNA 1
RNA 2: B2 RNA 2 with G34A, U44G, A46C, G49C
B20: target 3 insA 3' of 6,insG 3' of 5 (mixed)
RNA 1: B1 RNA 1
RNA 2: B4 RNA 2 with G46C, C47A, A50G
B21: target 3 insU 3' of 16,insA 3' of 2 (mixed)
RNA 1: B1 RNA 1
RNA 2: B4 RNA 2 with G38U, A39G, U42A, A43U, U44A, G46U, A50G, G51U, U52A
B22: target 3 insA 3' of 10,insC 3' of 4 (mixed)
RNA 1: B1 RNA 1
RNA 2: B4 RNA 2 with U44A, G46U, A50C
B23: target 3 insG 3' of 8,insA 3' of 6 (mixed)
RNA 1: B1 RNA 1
RNA 2: B4 RNA 2 with U45G, G46U, G49A, A50G
B24: target 3 insA 3' of 4,insA 3' of 2 (mixed)
RNA 1: B1 RNA 1
RNA 2: B4 RNA 2 with G46C, C47A, A48G, G49A, A50G, G51U, U52A
B25: target 3 insA 3' of 8,insA 3' of 6 (mixed)
RNA 1: B1 RNA 1
RNA 2: B4 RNA 2 with U45A, G46U, G49A, A50G
B26: target 3 insG 3' of 5,insG 3' of 5 (mixed)
RNA 1: B1 RNA 1
RNA 2: B4 RNA 2 with G46C, C47A, A48G, A50G
B27: target 3 del1,del4 (mixed)
RNA 1: B1 RNA 1
RNA 2: GGGAAUGGAUCCACAUCUACGAAUUCGUUUUUGAUCUGAAAUAUUCAGUUGCAGAUCGGAAGAGCACACGU
B28: target 3 U2G,C16U (mixed)
RNA 1: B1 RNA 1
RNA 2: B2 RNA 2 with G34A, C36U, A46C, U50G
B29: target 1 C2G,A18C (mixed)
RNA 1: CACCCGUGCAAAAAUGCAGGGGUCUAAAACUGAGCGGAUAACCUCUCUAUGG
RNA 2: GGGAAUGGAUCCACAUCUACGAAUUCGUACCAUCGAGAGGUUAUCCGCUGACCGAGAUCGGAAGAGCACACGU
B30: target 1 complement block 4-13 (mixed)
RNA 1: B29 RNA 1
RNA 2: GGGAAUGGAUCCACAUCUACGAAUUCGUACCAUAGAGACCAAUAGGCGUCACCGAGAUCGGAAGAGCACACGU
B31: target 1 insU 3' of 12,insG 3' of 3 (mixed)
RNA 1: B29 RNA 1
RNA 2: GGGAAUGGAUCCACAUCUACGAAUUCGUACCAUAGAGAGGUUUAUCCGCUGCACCGAGAUCGGAAGAGCACACGU

Positions count from the first letter of the chain named. Names may count otherwise.

The data set addresses T1, EsCas13d, nuclease-dead (Eubacterium siraeum, UniProt B0MS50, R295A;H300A;R849A;H854A).
T1 sequence: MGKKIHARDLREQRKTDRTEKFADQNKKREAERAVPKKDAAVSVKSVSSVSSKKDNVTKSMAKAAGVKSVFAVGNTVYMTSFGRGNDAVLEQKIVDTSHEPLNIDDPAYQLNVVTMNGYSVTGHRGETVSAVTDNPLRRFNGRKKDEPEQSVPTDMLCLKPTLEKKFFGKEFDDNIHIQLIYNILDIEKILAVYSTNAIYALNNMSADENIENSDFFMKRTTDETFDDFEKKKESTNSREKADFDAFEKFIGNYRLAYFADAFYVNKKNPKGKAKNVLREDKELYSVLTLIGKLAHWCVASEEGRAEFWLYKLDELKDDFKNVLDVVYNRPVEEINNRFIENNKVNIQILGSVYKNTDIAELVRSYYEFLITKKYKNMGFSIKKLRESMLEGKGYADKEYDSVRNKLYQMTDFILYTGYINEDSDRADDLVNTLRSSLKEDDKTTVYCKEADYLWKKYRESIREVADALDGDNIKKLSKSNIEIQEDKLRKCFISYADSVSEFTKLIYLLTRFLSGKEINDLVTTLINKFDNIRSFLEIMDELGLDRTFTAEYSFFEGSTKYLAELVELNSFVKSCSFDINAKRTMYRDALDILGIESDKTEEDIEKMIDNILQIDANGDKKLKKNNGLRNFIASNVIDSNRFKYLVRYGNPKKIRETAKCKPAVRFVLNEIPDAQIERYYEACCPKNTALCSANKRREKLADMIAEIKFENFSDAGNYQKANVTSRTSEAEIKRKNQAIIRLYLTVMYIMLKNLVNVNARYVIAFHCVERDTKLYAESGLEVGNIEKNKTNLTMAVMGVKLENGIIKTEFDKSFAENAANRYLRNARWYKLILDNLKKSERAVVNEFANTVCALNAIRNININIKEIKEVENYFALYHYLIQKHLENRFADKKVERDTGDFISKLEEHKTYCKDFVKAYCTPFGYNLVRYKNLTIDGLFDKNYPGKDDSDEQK
The experiment in a line: crRNA (strand 1, pre-loaded); Mg2+; 40 mM Tris-HCl pH 7.5, 150 mM NaCl, 6 mM MgCl2, 1 mM DTT, 0.1% Tween-20, 0.2 mg/ml BSA; 25 C; 10 min per concentration, then washed. As to conditions: tags: His6-TwinStrep-SUMO cleaved; N-terminal SNAP kept (SNAP-Surface 488); label: 3' end held by stalled T7 RNA polymerase.
Usually Kd stands for the constant that tells how readily two partners part at equilibrium. High values mean lower affinity, low ones higher affinity. B1 showed a dissociation constant Kd of 60.5 ± 15.5 nM.

Take B2: binding was put at a Kd of 55.5 ± 10.5 nM.

Molecule B3 registered an equilibrium dissociation constant (Kd) of 21.4 ± 2.3 nM.

For B4, binding was characterised by a dissociation constant (Kd) of 88 ± 17.5 nM.

On to B5, for which the Kd was 59.5 ± 7 nM.

B6 showed a dissociation constant (Kd) of 106 ± 45.5 nM.

Molecule B7 came in with an equilibrium dissociation constant (Kd) of 56.5 ± 11.5 nM.

For B8, the Kd was determined as 39 ± 4 nM.

B9 registered a dissociation constant (Kd) of 74.5 ± 11.5 nM.

For the molecule B10, the Kd turned out to be 88 ± 25 nM.

Regarding B11, the equilibrium dissociation constant (Kd) is 52 ± 12.5 nM.

For the molecule B12, the affinity, expressed as Kd, was 4.39 ± 0.415 nM.

For the molecule B13, the dissociation constant (Kd) is 34.2 ± 3.35 nM.

B14: the affinity, expressed as Kd, was 7.8 ± 0.65 nM.

With B15, the Kd is 46.5 ± 5.5 nM.

In the case of B16, the dissociation constant (Kd) amounted to 37 ± 5.5 nM.

B17 had a dissociation constant Kd of 36.5 ± 8.5 nM.

B18 registered a Kd of 55 ± 12 nM.

In turn, B19 registered a Kd of 88 ± 16.5 nM.

Turning to B20, the Kd turned out to be 5.51 ± 0.325 nM.

On to B21, for which binding was characterised by a dissociation constant (Kd) of 16.1 ± 1.9 nM.

For the molecule B22, the dissociation constant (Kd) amounted to 90 ± 32 nM.

Turning to B23, the Kd came out at 43.5 ± 6 nM.

B24 gave a Kd of 33 ± 7 nM.

In turn, B25 came in with an equilibrium dissociation constant (Kd) of 58.5 ± 6.5 nM.

Molecule B26 gave a Kd of 25.3 ± 5.25 nM.

For the molecule B27, binding was characterised by a dissociation constant (Kd) of 18 ± 2.5 nM.

B28 displayed a dissociation constant (Kd) of 21.6 ± 2.7 nM.

The molecule B29 returned a Kd of 44 ± 4 nM.

B30 returned a Kd of 55 ± 6 nM.

In the case of B31, binding was put at a Kd of 6.3 ± 0.4 nM.

(Values after PMC10786891, “Massively parallel profiling of RNA-targeting CRISPR-Cas13d”.)
